Consider one substance from patent US20130289253A1.

Test [1] addresses control (Fig. 49).
The target of test [2] is control (Fig. 49). This is another data set of the same source.

“And” between values parts separate entries of the source, which are not always exact repeats. Identical values can stand only once. Like-named read-outs stand apart in the source and are kept apart here.

Take “DR4 2×His DTB-HA306-318 complexes (DTB-streptactin purified monomers) (from UniProt P01903 26-216) (peptide-MHC)”: the % of cells in Q2 (multimer+ CD4+) was 0.985% and 0.623% with control (Fig. 49) [1]; 0.535% and 0.421% in the test with control (Fig. 49) [2].
